Assay results published in FireProtDB (doi:10.1021/bi036049+).
“And” between values parts separate entries of the source, which are not always exact repeats. Equal entries are not always repeated.

Settings: Thermal, CD, whole UniProt chain shown

B1: Frataxin, mitochondrial wild type, Q16595 (protein)
chain: MWTLGRRAVAGLLASPSPAQAQTLTRVPRPAELAPLCGRRGLRTDIDATCTPRRASSNQRGLNQIWNVKKQSVYLMNLRKSGTLGHPGSLDETTYERLAEETLDSLAEFFEDLADKPYTFEDYDVSFGSGVLTVKLGGDLGTYVINKQTPNKQIWLSSPSSGPKRYDWTGKNWVYSHDGVSLHELLAAELTKALKTKLDLSSLAYSGKDA
Tm (Homo sapiens, pH 6, phosphate 150 mM, reversible: yes (>95%)): 64.9 °C | Tm (Homo sapiens, pH 7, Hepes 10 mM, CaCl2 1 mM, reversible: yes (>95%)): 65.9 °C | Tm (Homo sapiens, pH 7, Hepes 10 mM, NaCl 150 mM, reversible: yes (>95%)): 65 °C | Tm (Homo sapiens, pH 7, Hepes 10 mM, reversible: yes (88%)): 68.6 °C | Tm (Homo sapiens, pH 7, phosphate 20 mM, reversible: yes (>95%)): 60 °C | Tm (Homo sapiens, pH 7, phosphate 150 mM, reversible: yes (>95%)): 65.7 °C

B2: Iron-sulfur cluster assembly protein CyaY wild type, P27838 (protein)
chain: MNDSEFHRLADQLWLTIEERLDDWDGDSDIDCEINGGVLTITFENGSKIIINRQEPLHQVWLATKQGGYHFDLKGDEWICDRSGETFWDLLEQAATQQAGETVSFR
Tm (Escherichia coli (strain K12), pH 6, phosphate 20 mM, reversible: yes (>95%)): 53.5 °C | Tm (Escherichia coli (strain K12), pH 7, Hepes 10 mM, CaCl2 1 mM, reversible: yes (>95%)): 62.7 °C | Tm (Escherichia coli (strain K12), pH 7, Hepes 10 mM, reversible: yes (86%)): 61.2 °C | Tm (Escherichia coli (strain K12), pH 7, Hepes 10 mM, reversible: yes (>95%)): 50.4 °C | Tm (Escherichia coli (strain K12), pH 7, phosphate 20 mM, reversible: yes (>95%)): 53.8 °C | Tm (Escherichia coli (strain K12), pH 7.5, Hepes 10 mM, reversible: yes (86%)): 60.5 °C | Tm (Escherichia coli (strain K12), pH 7.5, Hepes 10 mM, reversible: yes (>95%)): 54.8 °C and 58.3 °C | Tm (Escherichia coli (strain K12), pH 8, phosphate 20 mM, reversible: yes (>95%)): 53.8 °C | Tm (Escherichia coli (strain K12), pH 8, phosphate 200 mM, reversible: yes (>95%)): 45.8 °C

B3: Frataxin homolog, mitochondrial wild type, Q07540 (protein)
chain: MIKRSLASLVRVSSVMGRRYMIAAAGGERARFCPAVTNKKNHTVNTFQKRFVESSTDGQVVPQEVLNLPLEKYHEEADDYLDHLLDSLEELSEAHPDCIPDVELSHGVMTLEIPAFGTYVINKQPPNKQIWLASPLSGPNRFDLLNGEWVSLRNGTKLTDILTEEVEKAISKSQ
Tm (Saccharomyces cerevisiae (strain ATCC 204508 / S288c), pH 6, phosphate 20 mM, reversible: yes (>95%)): 39.9 °C | Tm (Saccharomyces cerevisiae (strain ATCC 204508 / S288c), pH 6, phosphate 150 mM, reversible: yes (>95%)): 49 °C | Tm (Saccharomyces cerevisiae (strain ATCC 204508 / S288c), pH 7, Hepes 10 mM, CaCl2 1 mM, reversible: yes (>95%)): 51.1 °C | Tm (Saccharomyces cerevisiae (strain ATCC 204508 / S288c), pH 7, Hepes 10 mM, CaCl2 150 mM, reversible: yes (>95%)): 52.9 °C | Tm (Saccharomyces cerevisiae (strain ATCC 204508 / S288c), pH 7, Hepes 10 mM, NaCl 150 mM, reversible: yes (>95%)): 44.6 °C | Tm (Saccharomyces cerevisiae (strain ATCC 204508 / S288c), pH 7, Hepes 10 mM, NaF 150 mM, reversible: yes (>95%)): 44.8 °C | Tm (Saccharomyces cerevisiae (strain ATCC 204508 / S288c), pH 7, phosphate 150 mM, reversible: yes (>95%)): 48.6 °C and 53.6 °C | Tm (Saccharomyces cerevisiae (strain ATCC 204508 / S288c), pH 7.2, Hepes 10 mM, NaF 150 mM, reversible: yes (>95%)): 46.9 °C | Tm (Saccharomyces cerevisiae (strain ATCC 204508 / S288c), pH 7.2, Hepes 10 mM, reversible: No): 44.8 °C | Tm (Saccharomyces cerevisiae (strain ATCC 204508 / S288c), pH 7.2, Hepes 10 mM, reversible: yes (47%)): 42.3 °C | Tm (Saccharomyces cerevisiae (strain ATCC 204508 / S288c), pH 7.2, Hepes 10 mM, reversible: yes (86%)): 37.9 °C | Tm (Saccharomyces cerevisiae (strain ATCC 204508 / S288c), pH 7.4, Hepes 10 mM, reversible: yes (>95%)): 35.5 °C | Tm (Saccharomyces cerevisiae (strain ATCC 204508 / S288c), pH 8, phosphate 150 mM, reversible: yes (>95%)): 45.9 °C
